Data from patent publication US20170190775A1 (published 2017).
Residue numbers refer to the chain shown, from its start.

Experiments:
Assay in all cases: SPR, TREM-1 variant captured by anti-His, Fab as analyte
[1] = biological target: T1, cTREM-1-Cmyc2-His6 (construct 0238), cynomolgus TREM-1 wt (cynomolgus monkey)
T1 construct: ECD with C-terminal cmyc2-His6 tag; also called wt cTREM-1
T1 chain: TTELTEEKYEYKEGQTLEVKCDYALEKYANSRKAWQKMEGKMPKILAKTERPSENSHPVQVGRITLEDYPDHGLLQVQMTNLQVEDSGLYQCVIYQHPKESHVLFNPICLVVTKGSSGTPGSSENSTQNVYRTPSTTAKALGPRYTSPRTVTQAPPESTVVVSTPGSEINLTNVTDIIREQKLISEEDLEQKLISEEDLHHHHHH
Description: (§1) Binding studies were performed on a ProteOn Analyzer that measures molecular interactions in real time through surface plasmon resonance. Experiments were run at 25° C. and the samples were stored at 15° C. in the sample compartment. The signal (RU, response units) reported by the ProteOn is directly correlated to the mass on the individual sensor chip surfaces in six parallel flow cells. Anti-His monoclonal antibody was immobilised onto 6 parallel flow cells of a GLM sensor chip using a 1:1 mixture of 0.4 M EDAC [1-ethyl-3-(3-dimethylaminopropyl) carbodiimide hydrochloride] and 0.1 M Sulfo-NHS [N-hydroxysulfosuccinimide]. […] Immobilisation was performed with all steps in horizontal direction. […] Cell culture medium from HEK 293 cells expressing wild type or different mutated variants of human or cynomolgus TREM-1 ECD was diluted 40-60 times in running buffer (10 mM HEPES, 150 mM NaCl, 3 mM EDTA, 0.05% surfactant P20, pH 7.4). TREM-1 proteins were injected over immobilised anti-His capture antibody in the vertical direction at 30 μl/min for 60 s. […] Each Fab was injected over parallel flow cells in the horizontal direction to allow for kinetic analysis of binding to TREM-1 variants captured by anti-His antibody. Prior to injection each Fab was diluted to 0, 5.5 (in one experiment), 16.7 and 50 nM in running buffer, and injected at 100 μl/min for 250 s (association time). The dissociation time following these injections was monitored for 10 minutes. The GLM chip was regenerated after each interaction cycle of TREM-1 and Fab via two 18 s injections of 10 mM Glycine and 50 mM NaOH at 100 μl/min. This regeneration step removed the TREM-1 variants and any bound Fab from the anti-His antibody surface, and allowed for the subsequent binding of the next interaction pair.

[2] = biological target: T2, A24T/Y28F/N30S/R32Q/E54K-cTREM-1-Cmyc2-His6 (construct 0245), partly humanised with back mutation 6 (cynomolgus monkey)
T2 construct: the entry already carries the mutations
T2 chain: T1 chain with A24T, Y28F, N30S, R32Q, E54K
Description: as §1

[3] = biological target: T3, A24T/Y28F/N30S/R32Q/P70H-cTREM-1-Cmyc2-His6 (construct 0244), partly humanised with back mutation 5 (cynomolgus monkey)
T3 construct: the entry already carries the mutations
T3 chain: T1 chain with A24T, Y28F, N30S, R32Q, P70H
Description: as §1

[4] = biological target: T4, cynomolgus TREM-1 partly humanised with back mutation 3 (construct 0242) (cynomolgus monkey)
T4 construct: Printed N50N = N50 kept
T4 chain: T1 chain with A24T, Y28F, R32Q, E54K, P70H
Description: as §1

[5] = biological target: T5, cynomolgus TREM-1 partly humanised (construct 0239) (cynomolgus monkey)
T5 chain: T1 chain with A24T, Y28F, N30S, R32Q, E54K, P70H
Description: as §1

[6] = biological target: T6, cynomolgus TREM-1 partly humanised with back mutation 4 (construct 0243) (cynomolgus monkey)
T6 construct: Printed R52R = R52 kept
T6 chain: T1 chain with A24T, Y28F, N30S, E54K, P70H
Description: as §1

[7] = biological target: T7, cynomolgus TREM-1 partly humanised with back mutation 2 (construct 0241) (cynomolgus monkey)
T7 construct: Printed Y48Y = Y48 kept
T7 chain: T1 chain with A24T, N30S, R32Q, E54K, P70H
Description: as §1

[8] = biological target: T8, cynomolgus TREM-1 partly humanised with back mutation 1 (construct 0240) (cynomolgus monkey)
T8 construct: Printed A44A = A44 kept
T8 chain: T1 chain with Y28F, N30S, R32Q, E54K, P70H
Description: as §1

Kd [1]: 1 nM
Kd [2]: 1 nM
Kd [3]: 1 nM
Kd [4]: 1 nM
Kd [5]: 2 nM
binding result [6]: no binding (tested: up to 50 nM Fab)
Kd [7]: 2 nM
Kd [8]: 2 nM
B1: Fab region of mAb 0170 (Fab, V domains shown)
VH: EVQLVESGGGLVQPGGSLKLSCAASGFTFSTYAMHWVRQASGKGLEWVGRIRTKSSNYATYYAASVKGRFTISRDDSKNTAYLQMNSLKTEDTAVYYCTRDMGIRRQFAYWGQGTLVTVSS
VL: DIVLTQSPDSLAVSLGERATINCRASESVDTFDYSFLHWYQQKPGQPPKLLIYRASNLESGVPDRFSGSGSGTDFTLTISSLQAEDVAVYYCQQSNEDPYTFGQGTKLEIKR
notes: also called 0170 Fab; Fab 0170
